Values quoted from earlier work in publication PMC3210788.

Biological target: VEGFR-1 (Mus musculus) (UniProt P35969)
Sequence of UniProt P35969 (P35969 23-1333 S1181G): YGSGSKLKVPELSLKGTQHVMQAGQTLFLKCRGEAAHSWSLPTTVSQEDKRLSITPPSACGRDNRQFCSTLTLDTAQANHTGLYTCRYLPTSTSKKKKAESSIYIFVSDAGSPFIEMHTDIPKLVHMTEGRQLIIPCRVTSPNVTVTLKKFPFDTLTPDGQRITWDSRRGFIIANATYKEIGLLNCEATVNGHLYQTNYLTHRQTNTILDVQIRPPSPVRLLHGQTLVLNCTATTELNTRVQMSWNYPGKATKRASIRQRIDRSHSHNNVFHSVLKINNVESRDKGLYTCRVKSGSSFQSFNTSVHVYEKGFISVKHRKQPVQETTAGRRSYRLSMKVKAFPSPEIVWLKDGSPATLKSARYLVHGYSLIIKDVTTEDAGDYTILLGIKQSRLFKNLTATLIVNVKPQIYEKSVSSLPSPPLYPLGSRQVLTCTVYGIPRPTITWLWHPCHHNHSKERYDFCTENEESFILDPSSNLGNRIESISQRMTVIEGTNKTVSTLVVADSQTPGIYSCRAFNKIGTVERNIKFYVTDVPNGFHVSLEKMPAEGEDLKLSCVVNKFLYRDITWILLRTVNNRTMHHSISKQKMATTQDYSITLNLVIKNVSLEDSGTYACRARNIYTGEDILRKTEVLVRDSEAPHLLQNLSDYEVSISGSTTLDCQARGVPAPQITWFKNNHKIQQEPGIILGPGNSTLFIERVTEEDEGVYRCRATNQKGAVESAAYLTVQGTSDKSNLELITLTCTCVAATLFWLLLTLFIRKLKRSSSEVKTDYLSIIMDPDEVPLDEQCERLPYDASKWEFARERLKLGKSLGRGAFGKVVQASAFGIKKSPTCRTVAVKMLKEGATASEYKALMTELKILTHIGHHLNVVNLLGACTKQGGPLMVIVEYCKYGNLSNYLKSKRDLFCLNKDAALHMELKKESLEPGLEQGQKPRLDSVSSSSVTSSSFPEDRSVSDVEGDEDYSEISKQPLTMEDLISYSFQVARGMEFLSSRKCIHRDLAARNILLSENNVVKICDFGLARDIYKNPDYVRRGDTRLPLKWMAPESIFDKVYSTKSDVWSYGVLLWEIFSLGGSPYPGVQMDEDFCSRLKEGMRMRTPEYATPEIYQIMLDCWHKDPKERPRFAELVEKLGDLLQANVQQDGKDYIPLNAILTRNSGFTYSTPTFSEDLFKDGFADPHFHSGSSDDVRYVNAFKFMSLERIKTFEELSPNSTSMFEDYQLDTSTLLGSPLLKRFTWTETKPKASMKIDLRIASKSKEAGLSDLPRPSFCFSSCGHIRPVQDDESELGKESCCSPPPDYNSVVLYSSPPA

VEGF (from UniProt Q00731)
Kd: 0.033 nM
